Experimental data: article PMC11742986

Test system: RcnR (Salmonella enterica serovar Typhimurium SL1344 (100% sequence identity to E. coli RcnR))
Assay: fluorescence anisotropy
Settings: Ni(II), 1:1 NiII:RcnR tetramer; 10 nM DNA, 60 mM NaCl, 240 mM KCl, 10 mM HEPES pH 7.5, 25 C, anaerobic, Chelex-treated N2-purged buffers; apo-RcnR Kd 1.5e-7 M is from earlier work (ref 39)

Question: Which Kd does the source give for rcnRA operator-promoter here?
Answer: Its Kd is 3.09 µM.
